Results as given in patent US20140314832A1 (SHANGHAI PULMONARY HOSPITAL TONGJI UNIVERSITY SCHOOL OF …, published 2014).

Key:
[1] = biological target: T1, rat pulmonary surfactant protein A (rSP-A), recombinant (rat (Rattus norvegicus), UniProt P08427 21-248, limits assumed); assay: ELISA of purified nanobody on rSP-A, OD450
[2] = biological target: T1, rat pulmonary surfactant protein A …; assay: indirect phage ELISA on coated rSP-A, OD 450 nm
Protocol: (1) Single clonies obtained from the three rounds of selections and grown on 2YTAG plates were inoculated into the 72-well culture plate at 30° C., and cultured with shaking overnight. (2) 400 ul of M13K07 helper phage was put in each well of another 72-well culture plate (labeled P1 Plate) the next day. (3) 40 ul of cultured medium were taken from each well of the Master Plate, which was cultured overnight, and put in each well of the P1 Plate, and incubated at 37° C. with shaking overnight. The culture supernatant was prepared by centrifugation at 1500 g for 20 minutes set aside, and the recombinant antibody was obtained. (4) A 96-well microtiter plate was coated with rSP-A. (5) 160 ul of recombinant antibody was mixed with 40 μL of MPBS, incubated for 20 minutes at room temperature. It was then added to blocked microtiter wells and reacted for 2 hours at 37° C. (6) Washing and adding HRP secondary antibody: HRP-labeled antibody against M13KO7 was diluted 1:4000 in PBS, 200 ul of that was added to each well, and incubated and reacted for 1 hour at 37° C. (7) 200 ul TMB substrate solution was added to each well, incubated at 37° C. for about 45 minutes to develop the image, 100 ul of stop solution was added to each well to stop the development process, and measurements were taken at 450 nm. Preliminary screening was conducted to select positive clones binding to rSP-A ith specificity.

[3] = biological target: T2, natural SP-A in rat lung tissue (rat, UniProt P08427 21-248); assay: immunohistochemistry (method of Example 6, rat lung tissue)
T2 construct: The immunohistochemistry is done on rat lung tissue; also called natural SP-A in the lung tissue

[4] = biological target: T2, natural SP-A in rat lung tissue; assay: immunohistochemistry on rat lung tissue slices, HIS-IgG-HRP secondary
Description: Fresh tissues from the lung, heart, liver, spleen, kidney, muscle of rat were fixed and sliced, and diluted primary antibody (Nb6, Nb17 for the experimental groups, SPA polyclonal antibody (SPA-poly-ant) as a positive control group, and alliinase as a negative control group) was dropped on. The secondary antibody was HIS-IgG-HRP. […] The binding effect of Nb17 was similar to that of SPA-poly-ant, while Nb6 had weaker binding effect than Nb 17, as there is differneces in the amino acid sequence at the antigen binding region between these two. All three antibodies had no obvious binding effect with rat heart, liver, spleen, kidney, muscle tissues, nor had the negative control group (FIG. 6).

Binder | affinity value relative to negative control [2] | binding result [3] | other results
Nb32 (VHH, Alpaca VHH clone; screened as phage clone; also called N0; 32; rSPA-Nb) VHH: MQAQLAGQLQLVESGGGLVQPGGSLRLSCTASKFHLDSYAVAWFRQTPGKEREAVSFINTSDDVTYFADSVKGRFTISRDNSKNTVYLQMNVLKPEDTSVYVCAAVRSPGPTGPSMQPMWSVPDLYDYWGQGTQVTVSSAHHSEDPGPRGLAAAGAPVPYPDPLEPRAA | 3 fold over negative control | binds | OD450 relative to negative control [1]: 5 fold over negative control
Nb28 (VHH, Alpaca VHH clone; screened as phage clone; also called N0; 28; rSPA-Nb) VHH: MQAQLAGQLQLVESGGGLVQPGGSLRLSCEASGFTFDDYAIGWFRQAPGKEREEVSCISHNGGTTNYADSVKGRFSISRDNAKNTVYLQMNGLKPEDTANYYCAGARSGLCVFFELQDYDYWGQGTQVTVSSAHHSEDPGPRGLAAAGAPVPYPDPLEPRAA | 3 fold over negative control |  | 
Nb41 (VHH, Alpaca VHH clone; screened as phage clone; also called N0; 41; rSPA-Nb) VHH: MQAQLAGQLQLVESGGGMVQPGGSLRLSCAASGFIFSRYDMGWVRQTPGKGREWVSGINSGGGRTYYADSVKGRFTISRDDDKATLYLSMDGLKPEDTALYHCVRFTVKTPQGYYYLNDFDYWGQGTQVTVSSEPKTPKPQGPRGLAAAGAPVPYPDPLEPRAA | 3 fold over negative control |  | 
Nb43 (VHH, Alpaca VHH clone; screened as phage clone; also called N0; 43; rSPA-Nb) VHH: MQAQLAGQLQLVESGGGLVQIGGSLRLSCAASGSDFSIYHMGWYRQAPGKQRELVAAITSGGSTNYADSVKGRFTISSDNAKNTVYLQMNSLKPEDTAVYYCNADGVPEYSDYASGPVYWGQGTQVTVSSAHHSEDPGPRGLAAAGAPVPYPDPLEPRAA | 3 fold over negative control |  | 
Nb48 (VHH, Alpaca VHH clone; screened as phage clone; also called N0; 48; rSPA-Nb) VHH: MQAQLAGQLQLVESGGGLVEVGESLRLSCVALGFTLDGYAIGWFRQAPGKEREKISCISSTGDSTNYDDSVKGRFTISRDTAKSTVFLQMNNLIPEDTAIYYCGADLLARCGRVWYFPPDLNYRGQGTQVTVSSAHHSEDPGPRGLAAAGAPVPYPDPLEPRAA | 3 fold over negative control | binds | OD450 relative to negative control [1]: 5 fold over negative control
Nb11 (VHH, Alpaca VHH clone; screened as phage clone; also called N0; 11; rSPA-Nb) VHH: MQAQLAGQLQLVESGGGLVQPGGSLRLSCVVSGVTFNNYGMTWVRQAPGKGLEWISTIYSNGHTYYADFVKGRFTISRDNAKNTLYLQMISLKPEDTAKYYCRLTGETYRGQGTQVTVSSEPKTRKPQGPRGLAAAGAPVPYPDPLEPRAA | 3 fold over negative control | binds | OD450 relative to negative control [1]: 5 fold over negative control
Nb17 (VHH, Alpaca VHH clone; screened as phage clone, then cloned into PET-30a, expressed in E. coli BL21 (DE3), nickel-purified, 17 kDa, detected with anti-His; also called N0; 17; rSPA-Nb) VHH: MQAQLAVQLQLVESGGGLVQPGGSLRLSCVVSGVTISNYGMSWVRQAPGKGLEWISTIYSNGHTYSADSVKGRFTISRDNAKNTLYLQMNSLKPEDTAKYYCKLVGETHRGQGTQVTVSSEPKTPKPQGPRGLAAAGAPVPYPDPLEPRAA |  |  | binding result [4]: binds
Nb18 (VHH, Alpaca VHH clone; screened as phage clone; also called N0; 18; rSPA-Nb) VHH: MQAQLAGQLQLVESGGGLVQPGGSLMLSCVVSGVTISNYGMTWVRQAPGKGLEWISTIYSNGHTYYADSVKGRFTASRDNAKNTLYLQMNSLKPEDTAKYYCKLTGETHRGQGTQVTVSSEPKTPKPQGPRGLAAAGAPVPYPDPLEPRAA |  | binds | 
Nb47 (VHH, Alpaca VHH clone; screened as phage clone; also called N0; 47; rSPA-Nb) VHH: MQAQLAGQLQLVESGGGRVQAGGSLTLSCAASGDIFTLASMGWYREDLHKKRELVAQLMSDGTANYGDSVKGRVTISRDDVDTTVHLRMNTLQPSDTGEYFCYIHTSREITWGRGTQVTVSQGESSAPQSSAPQATVSSAHHSEDPGPRGLAAAGAPVPYPDPLEPRAA | 3 fold over negative control |  | 
Nb27 (VHH, Alpaca VHH clone; screened as phage clone; also called N0; 27; rSPA-Nb) VHH: MQAQLAVQLQLVESGGGLVQPGGSLRLSCEVSGSRGSIYFSGWYRQAPGKQRELVASITSGGTTNYADSVKGRFTISRDNAKNTVYLQMNSLKPEDTAVYYCNIGRYGLGGSWGQGTQVTVSSEPKTPKPQGPRGLAAAGAPVPYPDPLEPRAA | 3 fold over negative control |  | 
Nb9 (VHH, Alpaca VHH clone; screened as phage clone; also called N0; rSPA-Nb) VHH: MQAQLAGQLQLVESGGGLVQPGGSLRLSCTASEFTLDYHSIGWFRQAPGKEREGVSCISYGDGTTFYTDSVKGRFTISRDNAKNTVTLQMNSLKPEDTAVYYCAASPGRLLLFRLCMSEDEYDFWGQGTQVTVSSEPKTPKPQGPRGLAAAGAPVPYPDPLEPRAA |  | binds | 
Nb19 (VHH, Alpaca VHH clone; screened as phage clone; also called N0; 19; rSPA-Nb) VHH: MQAQLAGQLQLVESGGGLVQPGGSLRLSCTASEFTLDYHSIGWFRQAPGKEREGVSCISYGDGTTFYTDSVKGRFTISRDNAKNTVTLQMNSLKPEDTAVYYCAASPGRLLLFRLCMSEDEYDFWGQGTQVTVSSEPKTPKPQGPRGLAAAGAPVPYPDPLEPRAA |  | binds | 
Nb22 (VHH, Alpaca VHH clone; screened as phage clone; also called N0; 22; rSPA-Nb) VHH: MQAQLAGQLQLVESGGGLVQPGGSLRLSCAASGRAFSVYAVGWYRQPPGKQRELVASITDGGSTNYADSVKGRFTVSRDNARNTAYLDMNSLKVEDTAVYYCNANYGGSVLYNYWGPGTQVTVSTEPKTPKPQGPRGLAAAGAPVPYPDPLEPRAA | 3 fold over negative control |  | 
Nb34 (VHH, Alpaca VHH clone; screened as phage clone; also called N0; 34; rSPA-Nb) VHH: MQAQLAVQLQLVESGGGTVQPGGSLNLSCVTSGFTFSRHDMSWVRQAPGKGPEWISGIGTSGTSGRYASSVKGRFTISRDNAKDTLYLQMDSLKPEDTGLYYCTTGGVYSAYVQPRGKGTQVTVSSAHHSEDPGPRGLAAAGAPVPYPDPLEPRAA | 3 fold over negative control |  | 
Nb3 (VHH, Alpaca VHH clone; screened as phage clone; also called N0; rSPA-Nb) VHH: MQAQLAVQLQLVESGGGLVQPGGSLRLSCVVSGVTFNNYGMSWVRQAPGKGLEWISSIYSNGHTYSADSVKGRFTISRDNANNTLYLQMNSLKPEDTANYYCKLVGETHRGQGTQVTVSSEPNTPKPQGPRGLAAAGAPVPYPDPLEPRAAYTVESCLA | 3 fold over negative control |  | 
Nb45 (VHH, Alpaca VHH clone; screened as phage clone; also called N0; 45; rSPA-Nb) VHH: MQAQLAVQLQLVESGGGLVQAGGSLRLSCVASGSMFNFYGMAWYRQAPGKQRELVASIDSEGRTTNYPDSLKGRFTISRDDAKSTAYLQMNNLIPDDTAVYYCNAFRGRMYDYWGQGTQVTVSSEPKTPKPQGPRGLAAAGAPVPYPDPLEPRAA | 3 fold over negative control |  | 
Nb36 (VHH, screened as phage clone; also called N0; 36; rSPA-Nb) VHH: MQAQLAVQLQLVESGGGLVQPGGSLRLSCAASGRAFSVYAVGWYRQIPGNQREMVAAISSGGNTKYSDSVKGRFTVSSEPKTPKPQGPRGLAAAGAPVPYPDPLEPRAA | 3 fold over negative control |  | OD450 relative to negative control [1]: 5 fold over negative control
Nb1 (VHH, Alpaca VHH clone; screened as phage clone (pCANTAB 5E); also called N0; rSPA-Nb) VHH: MQAQLAGQLQLVESGGGLVQPGGSLKLSCTASETTFEIYPMAWYRQAPGKQRELVAGINMISSTKYIDSVKGRFTISRDNDKNTMYLQMNSLKPEDTAVYYCNLDTTMVEGVEYWGQGTQVTVSSAHHSEDPGPRGLAAAGAPVPYPDPLEPRAA | 3 fold over negative control |  | 
